Assay: soluble on expression in E. coli; label from the status in PepcDB or PDB records

Sequence | soluble on expression in E. coli
MGSDKIHHHHHHMIVLFVDFDYFYAQVEEVLNPSLKGKPVVVCVFSGRFEDSGAVATANYEARKFGVKAGIPIVEAKKILPNAVYLPMRKEVYQQVSSRIMNLLREYSEKIEIASIDEAYLDISDKVRDYREAYNLGLEIKNKILEKEKITVTVGISKNKVFAKIAADMAKPNGIKVIDDEEVKRLIRELDIADVPGIGNITAEKLKKLGINKLVDTLSIEFDKLKGMIGEAKAKYLISLARDEYNEPIRTRVRKSIGRIVTMKRNSRNLEEIKPYLFRAIEESYYKLDKRIPKAIHVVAVTEDLDIVSRGRTFPHGISKETAYSESVKLLQKILEEDERKIRRIGVRFSKFIEAIGLDKFFDT | not soluble
MKSVTVFLLAGTTFAIYFDGKGSRHSSSSSEEHGGHGPRPGPGGPGRGGNCSPGWLRFERQSGVWCVFVGLAGINDNSFAQKDGQSACVALGATLTGFQNDKERMAVADEAGRKLGAAGGGIAGLWLGATTRAGCKAGACGPLNTFMWTDGVTTGTAGLKWATGEPDSVDYPGTAACIQQFIMLPNWVPGPYDLEGFRTGFTHGILYKFSCIAPVTPGTRMFACGKMAAG | not soluble
MTNHIEYKKNQIIASSEIDDLIFMSAPQEWSLEEQKEIQDKLVREAFHFHYNRNEKYRNYCISQHINENLHSIDEIPVFPTSIFKHMKFHTVSMGDIENWHTSSGTQGIKSCIARDRLSIERLLGSVNFGMKYVGNWFEHQMELVNLGPDRFSASNVWFKYVMSLVELLYPTVFTVNNDKIDFEETVNHLYRINNSNKDICLIGPPFFVSLLCQYMKENNIEFKGENRLHVITGGGWKSNENSSLNRQDFNQLIMDTFQLDNVNQIRDTFNQVELNTCFFEDEFQRKHVPPWVYARALDPETLKPVADGELGLLSYMDASSTAYPAFIVTDDIGIVREIREPDPYPGVTVEIVRRLNTRAQKGCALSMASFIQSTILEHHHHHH | not soluble
MGSSHHHHHHSSGLVPRGSHMSRAYDLVVLGAGSGGLEAGWNAAVTHKKKVAVVDVQATHGPPLFAALGGTCVNVGCVPKKLMVTGAQYMDLIRESGGFGWEMDRESLCPNWKTLIAAKNKVVNSINESYKSMFADTEGLSFHMGFGALQDAHTVVVRKSEDPHSDVLETLDTEYILIATGSWPTRLGVPGDEFCITSNEAFYLEDAPKRMLCVGGGYIAVEFAGIFNGYKPCGGYVDLCYRGDLILRGFDTEVRKSLTKQLGANGIRVRTNLNPTKITKNEDGSNHVHFNDGTEEDYDQVMLAIGRVPRSQALQLDKAGVRTGKNGAVQVDAYSKTSVDNIYAIGDVTNRVMLTPVAINEGAAFVETVFGGKPRATDHTKVACAVFSIPPIGTCGMTEEEAAKNYETVAVYASSFTPLMHNISGSKHKEFMIRIITNESNGEVLGVHMLGDSAPEIIQSVGICMKMGAKISDFHSTIGVHPTSAEELCSMRTPAYFYESGKRVEKLSSNL | soluble
MATATPVPPRMGSRAGGPTTPLSPTRLSRLQEKEELRELNDRLAVYIDKVRSLETENSALQLQVTEREEVRGRELTGLKALYETELADARRALDDTARERAKLQIELGKCKAEHDQLLLNYAKKESDLNGAQIKLREYEAALNSKDAALATALGDKKSLEGDLEDLKDQIAQLEASLAAAKKQLADETLLKVDLENRCQSLTEDLEFRKSMYEEEINETRRKHETRLVEVDSGRQIEYEYKLAQALHEMREQHDAQVRLYKEELEQTYHAKLENARLSSEMNTSTVNSAREELMESRMRIESLSSQLSNLQKESRACLERIQELEDLLAKEKDNSRRMLTDKEREMAEIRDQMQQQLNDYEQLLDVKLALDMEISAYRKLLQGEEERLKLSPSPSSRVTVSRASSSRSVRTTRGKRKRVDVEESEASSSVSISHSASATGNVCIEEIDVDGKFIRLKNTSEQDQPMGGWEMIRKIGDTSVSYKYTSRYVLKAGQTVTIWAANAGVTASPPTDLIWKNQNSWGTGEDVKVILKNSQGEEVAQRSTVFKTTIPEEEEEEEEAAGVVVEEELFHQQGTPRASNRSCAIM | soluble
MKIHPLSDVQAKQIGQGTSIWQYVVVLPGAVIGSDCNICSHCFIENAVVIGDRVTIKCGVQIWDGLRVEDDVFIGPNVTFTNDLFPRSKQHPKEFAKTVIQKGASIGANATILAGSTIGRNAMVGAGAVVTKSVPPNAIVVGNPARITGYVSTIPAQQKHSEIEVGENIGTVGQSAIPGVQFVRLPIIPDLRGSLSFAEFGQYLPFIPKRYFLVFDVQSREVRGEHAHKELHQFLVCVKGACSVMVDDGNCREEYILNTPGAALHIPPLVWGVQYKYSPDAVLMVLASDVYKPEDYIRDYDQFIALVKKLEHHHHHH | not soluble
EVENNFPCSLYKDEIMKEIERESKRIKLNDNDDEGNKKIIAPRIFISDDKDSLKCPCDPEMVSNSTCRFFVCKCVERRAEVTSNNEVVVKEEYKDEYADIPEHKPTYDKM | soluble
MGSDKIHHHHHHMKEIVTVGVDIAKNVFQVHGVDAQGVVVVRRKLRRSKVSGFFESLPPCLIGIEACATAHHWARHLMALGHEVKLMPAAYVKPYVKRQKNDAADAEGICEAVQRPTMRFVPVKSKEQQGVLMLHRARELLVRQRTMLINALRAHLAELGIATRLGPMGVKDAVAVIEGIDQHLIPEIVQHALSPLCDQLRHVHTKIEEMDRQILEWHRSSALSQRLATIPGIGPVTASAIAATITDVSSFRSGRQLAAWIGLVPRQSSSGGKERLGRITRQGDPYIRRLLVIGAAL | not soluble
SVSGLAILYLRRRRAPLARLRQAIQRCEFFVCYQPIVSLSDGRCVGAEALVRWRQQDGTLILPDQFIPLAERSGLILPITDQVIAASMRELGPLLVADRSLHIAINVSVKDIESGRLLDVLALALQDTGLYRKQLWIEATERSFMDARAAREHIVRLREAGYAVVIDDFGTGYSNLQYLQQLPLDALKIDKSFIDTVGRDVTNTAVASHIIDIAKELGMRTIAEGVEREEQLVYLRARGVDMAQGWLFSSP | not soluble
MSLHGELDKIYETLALAERRGPGPVDLLLCCGDFQAVRNEADLRCMAVPPKYRHMQTFYRYYSGEKKAPVLTLFIGGNHEASNHLQELPYGGWVAPNIYYLGLAGVVKYRGVRIGGISGIFKSHDYRKGHFECPPYNSSTIRSIYHVRNIEVYKLKQLKQPIDIFLSHDWPRSIYHYGNKKQLLKTKSFFRQEVENNTLGSPAASELLEHLKPTYWFSAHLHVKFAALMQHQAKDKGQTARATKFLALDKCLPHRDFLQILEIEHDPSAPDYLEYDIEWLTILRATDDLINVTGRLWNMPENNGLHARWDYSATEEGMKEVLEKLNHDLKVPCNFSVTAACYDPSKPQTEGHHHHHH | soluble
MAQMTMVQAINDALKTELKNDQDVLIFGEDVGVNGGVFRVTEGLQKEFGEDRVFDTPLAESGIGGLAMGLAVEGFRPVMEVQFLGFVFEVFDAIAGQIARTRFRSGGTKTAPVTIRGPFGGGVHTPELHADNLEGILAQSPGLKVVIPSGPYDAKGLLISSIRSNDPVVYLEHMKLYRSFREEVPEEEYTIDIGKANVKKEGNDISIITYGAMVQESMKAAEELEKDGYSVEVIDLRTVQPIDVDTIVASVEKTGRAVVVQEAQRQAGVGAAVVAELSERAILSLEAPIGRVAAADTIYPFTQAENVWLPNKNDIIEKAKETLEF | not soluble
MTMVKTLVALATERMLLKTSGPTFLRGIEFMYAAGLAPDRLSVMMTSSHKYVLQFHSKCDIRPFAANYPNFGRVLRGIVHVREWRIKSIEFVNVAFYMRDVDNLERAIEKLGVELVLLRNCTYPGVQRGDEAVKFLSALNRKKQAVVCEYGDDRLKHRIGRRSSGNRTRRASRNGQEIVNPAIAPGAAAAAQPALEAAPAAPAAGAAAPEANAPQAAPPGIRRPIPLNPDQARHIIPQLLNPGGAQPAPVQDGPVRGPPGIINQGRVVVGAHVYEFRAADVPNADGVPAVHNINHLLNVLNENAGNDVRVIVLPSRVGEGLPIHFNNNDLIFRHQSRPQPAPQQAAAAAAAGAAPAVAVGAEPLPQPDDVQIAPIPADERQARYARVQARLGHMMNARMRQNQEDQQYYYDQQPPNLMVVGTAHAHYRRHMNAQAHQQQREPSWNNYAVANAPPAIIQRNLDAPAPMFGVAVNEPQVQRNGDDSNDSTDREEIYDAEQQRQEALRDLVADPEAQPNFAPVEAQAVDLDMLEEEGEDDEVMEVGGVDGQFMMDGRAVME | not soluble
MGHHHHHHSHALLEKEILEKVSSPFIVSLAYAFESKTHLCLVMSLMNGGDLKFHIYNVGTRGLDMSRVIFYSAQIACGMLHLHELGIVYRDMKPENVLLDDLGNCRLSDLGLAVEMKGGKPITQRAGTNGYMAPEILMEKVSYSYPVDWFAMGCSIYEMVAGRTPFKDYKEKVSKEDLKQRTLQDEVKFQHDNFTEEAKDICRLFLAKKPEQRLGSR | not soluble
MRYVIAVKSPIYGKQGAFLAYQFAESLIKKEHEISQIFFFQDGVSNGNALVYPANDEVNLQKHWQMFSITYNVPLHLCVAASQRRGVVDNLTTPTTAHYNLAEGFTIAGLGEFIAASLNADRVITL | soluble
MKNIAIIGASGYTGAQLTALVHAESELSIQGLYVSENSLDKGRALADLYPVYSHIELTLSPLTEEAKANIVAEADAVVLATEHSVSLHLAAWFYSQGLAVFDLSGAYRFSDVAQYPKWYGFEHEYPEVLAKAVYGLAEWNAKDVAATKMIAVPGCYPTASLTALKPLKNLLTSAYPVINAVSGVTGAGRKAQLHTSFCEVSLTPYGVLGHRHQPEIATQLGQEVIFTPHLGNFKRGILATITVQLKPGTTTADVAAAYSVYDQAPLVTVKQNQFPKVDDVVLTPNCHLGWKFDESSGYLVVASAIDNLMKGAASQALQCIKIHFNL | not soluble
MSLKIDIHPLTHDPTSAWKELSKSQRVIKINTKPPAVDVPSNKVRVVCMSDTHSLTHHIKFDIPDGDIFIHAGDFTRCGKLDEVVDFNEWLKKLPHKHKLVIAGNHELSFDHTFTHPFQNASACCKKTGSTLLDEIPTLGNSKESLAEAVKTENIRQYLSSCTYLQDECVELYGLKIYGTPWQPEFCKWAFNVKRGQACLEKWEQIPENVDILVTHTPPVGHGDLCCSGVRAGCVELLATVQQRVKPKYHVFGHVHEGYGITSDGRIIFVNASTCDINYLPNNQPIVFDVTLPKGRTKDEGHHHHHH | soluble
MKRILCITGTRADFGKLKPLLAYIENHPDLELHLIVTGMHMMKTYGRTYKEVTRENYQHTYLFSNQIQGEPMGAVLGNTITFISRLSDEIEPDMVMIHGDRLEALAGAAVGALSSRLVCHIEGGELSGTVDDSIRHSISKLSHIHLVANEQAVTRLVQMGEKRKHIHIIGSPDLDVMASSTLPSLEEVKEYYGLPYENYGISMFHPVTTEAHLMPQYAAQYFKALELSGQNIISIYPNNDTGTESILQELLKYQSDKFIAFPSIRFEYFLVLLKHAKFMVGNSSAGIREAPLYGVPSIDVGTRQSNRHMGKSIIHTDYETKNIFDAIQQACSLGKFEADDTFNGGDTRTSTERFAEVINNPETWNVSAQKRFIDLNL | not soluble
MGHHHHHHSHMSSKHDYTNPPWNAKVPVQRAMQWMPISQKAGAAWGVDPQLITAIIAIESGGNPNAVSKSNAIGLMQLKASTSGRDVYRRMGWSGEPTTSELKNPERNISMGAAYLNILETGPLAGIEDPKVLQYALVVSYANGAGALLRTFSSDRKKAISKINDLDADEFLEHVARNHPAPQAPRYIYKLEQALDAM | soluble
MTTHEKVILVGVETEKNYQTFSASMEELANLTETANGEVVFVLTQKRPQVDRQTVIGKGKLEELIQLTDAYEADLVIFNHELTPRQNQLLSEALAVRVIDRVQLILDIFALRARSKEGKLQVELAQLDYLLPRLAGQGKQLSRLGGGIGTRGPGETKLESDRRHIRNKILGIRRELKEVTAHRERSRQKRQNSELFQIGLIGYTNAGKSTILNMLTTAGTYSEDQLFATLDPLTKKWQLPQGMEVTLTDTVGFIQDLPTQLIEAFQSTLEESRTMDLLLHVVDASAPDRLQHERTVQTLMKELALENIPCLTVYNKRDQVDSKEFVPTLFPNVLISTKISEDKERLVQAIRAQMMELLEPYQLEISPTDGQLLSELRRMTLMISEEYAENENRYIVKGFAKKKSKWLAESEKEAAALEHHHHHH | not soluble
